Measured values reported in patent US20200025759A1 (PANASONIC INTELLECTURAL PROPERTY MANAGEMENT, published 2020).

B1: VHH antibody consisting of the amino acid sequence represented by SEQ ID NO: 8 (VHH)
VHH: QVQLVESGGGLVQAGGSLRLSCIASGSIFSPNVMGWYRQAPGKPRELVAAITLGESTNYADSVKGRFTISRSNAENTVYLQMDSLKPEDTAVYYCNAGPILERVGPYWGQGTQVTVSS
B2: phage-displayed VHH antibody (protein synthesized from the DNA sequence represented by SEQ ID NO: 18, i.e. SEQ ID NO: 8) (VHH)
VHH: QVQLVESGGGLVQAGGSLRLSCIASGSIFSPNVMGWYRQAPGKPRELVAAITLGESTNYADSVKGRFTISRSNAENTVYLQMDSLKPEDTAVYYCNAGPILERVGPYWGQGTQVTVSS

Key:
[1] = biological target: recombinant nucleoprotein (NP) protein derived from influenza virus H1N1 to which a Flag tag was fus (influenza virus H1N1)
Chain of recombinant nucleoprotein (NP) protein derived from influenza virus H1N1 to which a Flag tag was fus (influenza virus H1N1) (P03466 whole entry): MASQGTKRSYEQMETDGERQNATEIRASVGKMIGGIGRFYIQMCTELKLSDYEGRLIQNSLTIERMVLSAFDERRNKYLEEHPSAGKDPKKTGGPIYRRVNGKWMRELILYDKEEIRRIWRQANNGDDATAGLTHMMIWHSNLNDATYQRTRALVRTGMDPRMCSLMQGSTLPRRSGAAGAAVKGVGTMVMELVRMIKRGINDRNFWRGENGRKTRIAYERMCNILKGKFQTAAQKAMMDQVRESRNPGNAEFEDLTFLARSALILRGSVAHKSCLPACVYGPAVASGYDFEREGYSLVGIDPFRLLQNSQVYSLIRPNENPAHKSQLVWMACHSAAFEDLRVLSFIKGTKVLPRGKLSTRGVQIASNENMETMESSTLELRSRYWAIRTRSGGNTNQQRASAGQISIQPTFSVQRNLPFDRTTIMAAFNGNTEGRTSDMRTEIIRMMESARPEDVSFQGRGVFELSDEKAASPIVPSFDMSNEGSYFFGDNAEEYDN

[2] = biological target: intranuclear protein derived from type-A influenza virus H1N1 (A/Puerto Rico/8/34/Mount Sinai) (type-A influenza virus H1N1 (A/Puerto …, UniProt P03466 1-498)); assay: ELISA, virus solution immobilized on plate, anti-His-HRP detection
Chain of intranuclear protein derived from type-A influenza virus H1N1 (A/Puerto Rico/8/34/Mount Sinai) (type-A influenza virus H1N1 (P03466 whole entry): as above

[3] = biological target: intranuclear protein derived from type-A influenza virus H11N6 (A/duck/England/1/1956) (type-A influenza virus H11N6 …, UniProt P26062 1-498); assay: as above
Chain of intranuclear protein derived from type-A influenza virus H11N6 (A/duck/England/1/1956) (P26062 whole entry): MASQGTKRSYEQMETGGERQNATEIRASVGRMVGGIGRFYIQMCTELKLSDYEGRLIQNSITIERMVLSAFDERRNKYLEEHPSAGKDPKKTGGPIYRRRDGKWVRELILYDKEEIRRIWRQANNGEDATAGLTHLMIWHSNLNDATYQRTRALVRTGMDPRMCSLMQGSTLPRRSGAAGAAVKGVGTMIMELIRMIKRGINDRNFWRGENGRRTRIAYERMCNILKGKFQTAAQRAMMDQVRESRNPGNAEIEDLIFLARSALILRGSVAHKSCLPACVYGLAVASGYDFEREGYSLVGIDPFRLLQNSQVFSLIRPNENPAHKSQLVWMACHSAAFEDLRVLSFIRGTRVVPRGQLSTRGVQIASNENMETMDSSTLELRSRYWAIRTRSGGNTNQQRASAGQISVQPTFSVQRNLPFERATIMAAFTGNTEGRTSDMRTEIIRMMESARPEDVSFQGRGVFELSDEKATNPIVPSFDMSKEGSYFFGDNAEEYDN

[4] = biological target: intranuclear protein derived from type-A influenza virus H7N7 (A/seal/Massachusetts/1/1980) (type-A influenza virus H7N7 …, UniProt P26053 1-498); assay: as above
Chain of intranuclear protein derived from type-A influenza virus H7N7 (A/seal/Massachusetts/1/1980) (P26053 whole entry): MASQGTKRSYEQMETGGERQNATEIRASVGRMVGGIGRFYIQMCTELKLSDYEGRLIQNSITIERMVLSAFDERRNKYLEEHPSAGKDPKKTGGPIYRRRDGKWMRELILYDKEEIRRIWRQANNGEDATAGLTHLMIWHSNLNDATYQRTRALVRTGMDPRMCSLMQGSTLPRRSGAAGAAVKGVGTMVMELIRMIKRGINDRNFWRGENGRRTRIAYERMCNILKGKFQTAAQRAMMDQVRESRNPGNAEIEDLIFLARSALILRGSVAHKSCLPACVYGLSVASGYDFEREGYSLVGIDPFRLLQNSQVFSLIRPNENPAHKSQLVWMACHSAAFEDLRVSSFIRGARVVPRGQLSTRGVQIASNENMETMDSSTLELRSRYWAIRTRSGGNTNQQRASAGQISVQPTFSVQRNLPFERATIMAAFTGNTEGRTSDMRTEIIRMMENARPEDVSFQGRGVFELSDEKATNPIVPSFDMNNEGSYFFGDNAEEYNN

[5] = biological target: recombinant intranuclear protein (SEQ ID NO: 24) derived from a type-A influenza virus H1N1 (A/Puert (type-A influenza virus H1N1 (A/Puerto …, UniProt P03466 1-498))); assay: phage ELISA on immobilized NP, anti-M13 detection, absorbance at 450 nm
Chain of recombinant intranuclear protein (SEQ ID NO: 24) derived from a type-A influenza virus H1N1 (A/Puert (type-A influenza virus H1N1 (P03466 whole entry): as the sequence (P03466 whole entry) above

Row | Binder | Kd [1] [nM] | binding result [2] | binding result [3] | binding result [4] | binding result [5]
1 | B1 | 0.826 | binds | binds | binds | –
2 | B2 | – | – | – | – | binds
